# Measured values as given in publication PMC5052687.
# B1: MCvar1 PfEMP1 CIDRα2.8 domain (residues 576-745, mutant [Plasmodium falciparum] / human CD36 ectodomain (residues 35-439) with C-terminal BAP tag, biotinylated [modified: biotin on the BAP tag (in vitro, BirA ligase); biotin … (parent)
# chain 1: EDKIMSYNAFFWMWVHDMLIDSIKWRDEHGRCINKDKGKTCIKGCNKKCISFQKWVEQKKTEWGKIKDHFRKQKDIPKDWTHDDFLQTLLMKDLLLEIIQDTYGDANEIKRIEALLEQAGVGGIDFAALAGLYTKGFVAEKDTTIDKLLQHEQKEADKCLKTHTDDTCPP
# chain 2: QKTIKKQVVLEEGTIAFKNWVKTGTEVYRQFWIFDVQNPQEVMMNSSNIQVKQRGPYTYRVRFLAKENVTQDAEDNTVSFLQPNGAIFEPSLSVGTEADNFTVLNLAVAAASHIYQNQFVQMILNSLINKSKSSMFQVRTLRELLWGYRDPFLSLVPYPVTTTVGLFYPYNNTADGVYKVFNGKDNISKVAIIDTYKGKRNLSYWESHCDMINGTDAASFPPFVEKSQVLQFFSSDICRSIYAVFESDVNLKGIPVYRFVLPSKAFASPVENPDNYCFCTEKIISKNCTSYGVLDISKCKEGRPVYISLPHFLYASPDVSEPIDGLNPNEEEHRTYLDIEPITGFTLQFAKRLQVNLLVKPSEKIQVLKNLKRNYIVPILWLNETGTIGDEKANMFRSQVTGKIN
# Variants of: B1
# Assay: SPR
# Details: with human CD36 ectodomain (residues 35-439) with C-terminal BAP tag, plateau of the top sensorgram (highest analyte concentration of the series), concentrations not given, parent: 62, read off a plot
row,Variant,response [RU]
1,chain 1 Q73A,27
2,chain 1 E97A,40
